Experimental findings from US9050248B2, “Methods of delivering stable topical drug compositions” (Transdermal Biotechnology, Inc., priority 2002, dated 2015) are described below.

Data set [1] is described as follows: Skin penetration on topical application of somatotropin composition. The settings on record: composition topically applied. The procedure: A drug delivery composition formulated with somatotropin was formulated in one trial with 85% phosphatidylcholine to which lipoic acid and ascorbyl palmitate were added.
Data set [2] in a line: Storage stability of insulin by RP-HPLC and HPCE (Example 2). It is filed as physicochemical.
Data set [3] in a line: Storage stability of insulin by RP-HPLC and HPCE (Example 1). Conditions: stored at room temperature. It is filed as physicochemical. The procedure: This mixture was then divided in half, half of which was stored at 4° C., and the other half stored at room temperature.

For the substance “Somatotropin: pituitary growth hormone, formulated with 85% phosphatidylcholine, lipoic acid and ascorbyl palmitate”, the skin penetration entry in data set [1] is on record as “appeared to penetrate the skin well”.

For “insulin standards: recombinant human insulin in 0.01 N HCl, 1 mg/ml (Example 1) or 5 mg/ml (Example 2)”, the “time stable (RP-HPLC and HPCE)” value in data set [2] (stored at 4° C.) turned out to be 22 weeks. In addition, the “time at which denaturing started” value is given as no more than 1 week in data set [2] (stored at room temperature) and no more than 7 days in data set [3].
